EP4725955A1, “PEPTIDE TARGETING C-MET, PHARMACEUTICAL COMPOSITION COMPRISING SAID PEPTIDE AND USE THEREOF” (Nanjing Anji Biotechnology Co., Ltd., priority 2023, dated 2025)
Values after ≈ are worked out from the molar mass of the structure shown. Where a SMILES comes first, the peptide text is derived from it. Where no end group is shown, it is not given here. The star is where a group is joined. Paclitaxel(2'-O-succinyl) = CC(=O)O[C@H]1C(=O)[C@@]2(C)[C@H]([C@H](OC(=O)c3ccccc3)[C@]3(O)C[C@H](OC(=O)[C@H](OC(=O)CCC(=O)*)[C@@H](NC(=O)c4ccccc4)c4ccccc4)C(C)=C1C3(C)C)[C@]1(OC(C)=O)CO[C@@H]1C[C@@H]2O; FITC = O=C1OC2(c3ccc(O)cc3Oc3cc(O)ccc32)c2ccc(NC(=S)*)cc21; Acp = not defined here

Columns and labels:
[1] = literature values; cited from earlier work
[2] = Solubility of drug and drug-peptide conjugate in water (supersaturated solution, HPLC standard curve); type: physicochemical
Procedure: The peak areas of the series standard solutions were detected via HPLC (mobile phase: 0.065% TFA water + 0.05% TFA; chromatographic column: YMC-TriartC18; wavelength: 220 nm), so as to construct a concentration-peak area standard curve, as shown in FIG. 13. In FIG. 13, the horizontal axis represents the concentration, and the longitudinal axis represents the peak area.
The peak area of the sample was detected via HPLC, and the solubility value of the sample in water was calculated by the concentration-peak area standard curve. Table 5 Solubility Value of Sample in Water

[3] = target: c-Met positive cell MKN-45 (Homo sapiens, UniProt P08581); test: Flow cytometry detection of binding of FITC-labelled peptide to c-Met positive cell MKN-45; type: cell-based; settings: for binding affinity to c-Met positive cell MKN45 compared with P1-AI: alanine scanning, FITC-labelled peptides 10 µM to 0.625 µM, FIG. 12; for affinity to c-Met positive cell MKN45 relative to CM7-1: comparison of EC50 with CM7-1, FITC-labelled peptides tested; for binding to c-Met positive cell MKN45, dose dependence: different peptide concentrations, flow cytometry
Procedure: MKN 45 cells cultured in a 1640 culture solution (Nanjing Senbeijia Biotechnology Co., Ltd.) were collected, and washed twice with pre-cooled PBS. 1 mL of 1% BSA solution was added into the washed cells, and then the above mixed system was placed on a rotary mixer (Lichen Technology Co., Ltd.) and incubated for 30 min at 4°C. Different concentrations of FITC-P1-AI, FITC-CM7-1, FITC-CM7-1.1, FITC-CM7-1.2, FITC-CM7-1.3, FITC-CM7-1.4, FITC-CM7-1.5 and FITC-CM7-1.6 peptide solutions were respectively added in the dark to obtain multiple groups, and then the mixtures were placed on the rotary mixer and incubated for 1 h at 4°C in the dark. After the incubation was completed, the mixed system of the cells was centrifuged for 5 min at 800 rpm, and then supernatant was discarded. The cells were washed twice with pre-cooled PBS, and the concentration of the cells was adjusted to 1×10^6 cells/mL using PBS. 3 parallel replicate wells were set up for cells in each group, with 0.5 mL prepared per sample; and a flow cytometer was used to detect the binding of the peptide to c-Met positive cell MKN-45, EC50 data and a binding curve were generated. […] Table 2 Binding affinity of peptide to MKN-45
MKN-45 cells cultured in a 1640 culture solution were collected, and washed twice with pre-cooled PBS 1 mL of 1% BSA solution was added into the washed cells, and then the above mixed system was placed on a rotary mixer and incubated for 30-60 min at 4°C. 10 µM of FITC-P1-AI peptide solution and FITC-CM7-1 were respectively added in the dark to form two groups, and the above mixed systems were placed on the rotary mixer and incubated for 1 h at 4°C in the dark. After the incubation was completed, the mixed system of the cells was centrifuged for 5 min at 800 rpm, and then supernatant was discarded. The cells were washed 1-2 times with pre-cooled PBS, and then the concentration of the washed cells was adjusted to 1×10^6 cells/mL by using PBS. 3 parallel replicate wells were set up for cells in each group, with 0.5 mL prepared per sample; and a flow cytometer was used to detect the binding of the peptide to c-Met positive cells.
The MKN-45 cells cultured in a 1640 culture solution were collected, and washed twice with pre-cooled PBS. […] After the incubation was completed, the mixed system of the cells was centrifuged for 5 min at 800 rpm, and then supernatant was discarded. The cells were washed 1-2 times with pre-cooled PBS, and then the concentration of the washed cells was adjusted to 1×10^6 cells/mL by using PBS. 3 parallel replicate wells were set up for cells in each group, with 0.5 mL prepared per sample; and a flow cytometer was used to detect the binding of the peptide to the c-Met positive cell MKN-45. […] Table 4 Sequences of Peptides

[4] = tested on: MKN-45 subcutaneous xenograft tumor; test: Living imaging of tissue distribution in MKN-45 subcutaneous xenograft tumor mice; type: in vivo, nude mice; settings: 5 mg/kg via tail vein, tumor about 400 mm^3, FIG. 11
Procedure: In MKN-45 subcutaneous xenograft tumor mice (nude mice were purchased from Changzhou Kavens Laboratory Animal Co., Ltd), 5X10^6 MKN45 cells were subcutaneously implanted into nude mice; and when the volume of the tumor was about 400 mm^3, 5 mg/kg Cy5-P1-AI was injected via a tail vein, and its tissue distribution was analyzed using a living imaging instrument. […] In the figure, a circle area is a tumor site.

[5] = Solubility detection of peptide in ultrapure water (visual); type: physicochemical
Procedure: 13.4 mg of CM7-1 and 15 mg of P1-AI were respectively weighed and dissolved using ultrapure (UP) water (prepared using Youpu Pure Water/Ultrapure Water Manufacturing System (UPR-II-10T)).

[6] = tested on: human hepatic stellate cell LX-2; test: Specificity: flow cytometry binding of peptide to LX-2 cells that barely express c-Met; type: cell-based; settings: concentration of up to 10 µM, cells barely expressing c-Met, FIG. 8
Procedure: Human hepatic stellate cells LX-2 cultured in a 1640 culture solution were collected, and washed twice with pre-cooled PBS. 1 mL of 1% BSA solution was added into the washed cells, and then the above mixed system were placed on a rotary mixer and incubated for 30 min at 4°C. 10 µM of FITC-P1-AI peptide solution and FITC-CM7-1 were respectively added in the dark to form two groups, and the above mixed systems were placed on the rotary mixer and incubated for 1 h at 4°C in the dark. After the incubation was completed, the mixed system of the cells was centrifuged for 5 min at 800 rpm, and then supernatant was discarded. The cells were washed twice with pre-cooled PBS, and the concentration of the cells was adjusted to 1×10^6 cells/mL using PBS. 3 parallel replicate wells were set up at concentrations of 1 µM, 5 µM and 10 µM for cells in each group, with 0.5 mL prepared per sample; and a flow cytometer was used to detect the binding of the peptide to LX-2 cells.

[7] = target: c-Met protein (UniProt P08581 25-932, limits assumed); test: microscale thermophoresis (MST), FITC-peptide with titrated c-Met protein
[8] = target: T1, c-Met on c-Met positive human gastric cancer cell MKN-45 (human, UniProt P08581 25-1390); test: flow cytometry, FITC-peptide on c-Met positive MKN-45 cells
T1 construct: whole, on cells; also called hepatocyte growth factor receptor; HGFR

[9] = target: T1, c-Met on c-Met positive human gastric …; test: flow cytometry, FITC-peptide (0.625-10 µM) on MKN-45 cells

c-Met protein, sequence (P08581 25-932 limits assumed): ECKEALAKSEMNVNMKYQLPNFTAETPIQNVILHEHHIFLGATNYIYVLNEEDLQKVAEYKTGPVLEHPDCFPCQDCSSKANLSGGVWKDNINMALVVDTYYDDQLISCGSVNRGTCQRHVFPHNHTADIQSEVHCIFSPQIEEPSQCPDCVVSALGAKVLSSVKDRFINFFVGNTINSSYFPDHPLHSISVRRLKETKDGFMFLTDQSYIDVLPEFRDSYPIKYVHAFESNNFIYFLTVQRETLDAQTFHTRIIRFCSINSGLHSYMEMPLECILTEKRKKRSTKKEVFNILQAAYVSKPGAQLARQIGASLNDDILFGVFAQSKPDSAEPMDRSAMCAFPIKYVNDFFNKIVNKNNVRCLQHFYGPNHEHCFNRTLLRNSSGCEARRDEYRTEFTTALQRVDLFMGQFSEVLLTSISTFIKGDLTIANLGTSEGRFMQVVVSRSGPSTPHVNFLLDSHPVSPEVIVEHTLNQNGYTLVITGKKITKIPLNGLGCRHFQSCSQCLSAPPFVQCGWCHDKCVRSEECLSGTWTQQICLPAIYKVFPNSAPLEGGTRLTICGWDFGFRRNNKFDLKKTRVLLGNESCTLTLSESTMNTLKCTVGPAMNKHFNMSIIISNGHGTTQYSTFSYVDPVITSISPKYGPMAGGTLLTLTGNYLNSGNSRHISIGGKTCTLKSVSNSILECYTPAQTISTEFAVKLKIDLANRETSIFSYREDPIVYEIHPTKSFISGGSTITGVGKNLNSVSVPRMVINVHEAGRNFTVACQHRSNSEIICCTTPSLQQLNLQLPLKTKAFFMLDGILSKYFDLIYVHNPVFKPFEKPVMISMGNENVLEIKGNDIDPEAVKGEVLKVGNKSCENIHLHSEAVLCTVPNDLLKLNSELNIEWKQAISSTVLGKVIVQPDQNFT
T1 sequence (P08581 25-1390): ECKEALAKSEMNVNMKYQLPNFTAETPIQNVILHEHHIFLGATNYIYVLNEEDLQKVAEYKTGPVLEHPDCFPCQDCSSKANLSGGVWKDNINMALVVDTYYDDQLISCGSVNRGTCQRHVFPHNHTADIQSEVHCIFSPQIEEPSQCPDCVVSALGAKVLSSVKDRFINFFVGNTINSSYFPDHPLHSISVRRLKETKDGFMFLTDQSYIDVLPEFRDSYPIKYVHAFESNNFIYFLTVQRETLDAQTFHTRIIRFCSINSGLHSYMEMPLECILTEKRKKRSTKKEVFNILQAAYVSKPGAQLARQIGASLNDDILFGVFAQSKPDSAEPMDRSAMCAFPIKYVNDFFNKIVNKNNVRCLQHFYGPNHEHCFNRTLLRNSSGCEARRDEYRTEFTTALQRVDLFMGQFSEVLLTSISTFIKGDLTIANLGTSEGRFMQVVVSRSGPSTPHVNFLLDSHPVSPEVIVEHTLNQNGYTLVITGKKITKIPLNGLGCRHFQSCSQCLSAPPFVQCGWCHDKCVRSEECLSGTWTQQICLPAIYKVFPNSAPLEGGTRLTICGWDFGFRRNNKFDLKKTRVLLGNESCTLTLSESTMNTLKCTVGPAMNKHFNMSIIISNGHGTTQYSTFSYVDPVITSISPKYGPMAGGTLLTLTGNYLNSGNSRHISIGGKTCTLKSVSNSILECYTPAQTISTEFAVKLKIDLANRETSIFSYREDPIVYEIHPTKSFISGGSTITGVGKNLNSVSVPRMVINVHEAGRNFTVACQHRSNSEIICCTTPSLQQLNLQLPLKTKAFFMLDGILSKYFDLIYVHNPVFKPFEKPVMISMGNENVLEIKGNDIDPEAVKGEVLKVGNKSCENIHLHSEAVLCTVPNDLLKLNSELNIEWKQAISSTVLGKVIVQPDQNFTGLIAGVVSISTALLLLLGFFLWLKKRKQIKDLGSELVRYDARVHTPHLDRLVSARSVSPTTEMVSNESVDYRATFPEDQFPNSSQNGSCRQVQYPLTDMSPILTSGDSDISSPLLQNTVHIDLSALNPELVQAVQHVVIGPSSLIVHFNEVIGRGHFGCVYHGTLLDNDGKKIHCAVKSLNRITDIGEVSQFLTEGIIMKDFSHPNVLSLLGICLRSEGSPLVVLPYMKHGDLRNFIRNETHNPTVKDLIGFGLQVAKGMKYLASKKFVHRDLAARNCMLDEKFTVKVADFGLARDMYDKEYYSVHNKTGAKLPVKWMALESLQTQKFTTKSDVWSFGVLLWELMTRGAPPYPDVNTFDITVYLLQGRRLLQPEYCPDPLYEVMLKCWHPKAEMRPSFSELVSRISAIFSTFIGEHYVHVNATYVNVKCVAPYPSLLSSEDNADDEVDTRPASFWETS
c-Met positive cell MKN-45, sequence (P08581 25-1390): as above

For `CCc1c2c(nc3ccc(OCC(=O)N4CCCCC4)cc13)-c1cc3c(c(=O)n1C2)COC(=O)[C@]3(O)CC` [7-ethyl-10-[2-oxo-2-(piperidinyl)ethoxy]camptothecin], which solubility in water [1] is on record?
Its solubility in water is “about 6.22 µg/mL”.

For `CC[C@@]1(O)C(=O)OCc2c1cc1n(c2=O)Cc2cc3ccccc3nc2-1` [CPT, camptothecin], which solubility at 15 min ([2]; thermodynamic from solid) is on record?
The solubility at 15 min was 0.084 µg/mL (≈ 0.241 µM).

With `CC(=O)O[C@@]12CO[C@@H]1C[C@H](O)[C@@]1(C)C(=O)[C@H](O)C3=C(C)[C@@H](OC(=O)[C@H](OC(=O)CCC(=O)N[C@@H](CCCNC(=N)N)C(=O)N[C@@H](CO)C(=O)N4CCC[C@H]4C(=O)N[C@@H](Cc4ccc(O)cc4)C(=O)N[C@@H](C)C(=O)N[C@@H](CC(N)=O)C(=O)N[C@@H](CO)C(=O)O)[C@@H](NC(=O)OC(C)(C)C)c4ccccc4)C[C@@](O)([C@@H](OC(=O)c4ccccc4)[C@H]21)C3(C)C` [DOC-P1-AI] as the molecule, how does the “Solubility increasing fold of drug-peptide conjugate compared with drug” value [2] read?
Its value is 1.62×10^5 fold.

Which “Solubility increasing fold of drug-peptide conjugate compared with drug” value [2] does the source give for `CC(=O)O[C@H]1C(=O)[C@@]2(C)[C@H]([C@H](OC(=O)c3ccccc3)[C@]3(O)C[C@H](OC(=O)[C@H](OC(=O)CCC(=O)N[C@@H](CCCNC(=N)N)C(=O)N[C@@H](CO)C(=O)N4CCC[C@H]4C(=O)N[C@@H](Cc4ccc(O)cc4)C(=O)N[C@@H](C)C(=O)N[C@@H](CC(N)=O)C(=O)N[C@@H](CO)C(=O)O)[C@@H](NC(=O)c4ccccc4)c4ccccc4)C(C)=C1C3(C)C)[C@]1(OC(C)=O)CO[C@@H]1C[C@@H]2O` [PTX-P1-AI] ({Paclitaxel(2'-O-succinyl)}-RSPYANS-OH; N-terminus assumed) here?
The value was 46.33 fold.

Which “binding affinity to c-Met positive cell MKN45 compared with P1-AI” value (from here on “binding affinity … compared with P1-AI”) [3] does the source give for ASPYANS [P1-AI-1] here?
Its value is “reduced”.

With Cy5-RSPYANS [Cy5-P1-AI] as the molecule, how does the “tissue distribution by living imaging” value [4] read?
The value was “enriched in cancer sites highly expressing c-Met”.

Which results are given for DAIIANN [CM7-1.2]?
affinity to c-Met positive cell MKN45 relative to CM7-1 [3]: significantly increased affinity; binding to c-Met positive cell MKN45, dose dependence [3]: dose-dependent

Which “affinity to c-Met positive cell MKN45 relative to CM7-1” value [3] does the source give for DQAIANN [CM7-1.3] here?
The value was “significantly increased affinity”.

What about the “binding to c-Met positive cell MKN45, dose dependence” value [3] of the same molecule?
The value was “dose-dependent”.

Which “affinity to c-Met positive cell MKN45 relative to CM7-1” value [3] does the source give for DQIAANN [CM7-1.4] here?
Its value is “increased affinity”.

Which “affinity to c-Met positive cell MKN45 relative to CM7-1” value [3] does the source give for DQIIANA [CM7-1.6] here?
Its value is “increased affinity”.

For “DQIIANN [CM7-1, DQIIANN, reference compound]”, which state in water ([5]; concentration 6 mM) is on record?
Its state in water is “completely cloudy state”.

For “FITC-RSPYANS (not fully specified; FITC label) [FITC-P1-AI]”, which “binding to LX-2 cells” value [6] is on record?
The value was “barely binds”.

Which “binding affinity … compared with P1-AI” value [3] does the source give for RAPYANS [P1-AI-2] here?
The value was “reduced”.

With RSAYANS [P1-AI-3] as the molecule, how does the “binding affinity … compared with P1-AI” value [3] read?
Its value is “reduced”.

What does the source list for RSPAANS [P1-AI-4]?
binding affinity to c-Met positive cell MKN45 compared with P1-AI [3]: increased binding affinity; binding affinity to c-Met compared with CM7-1 ([3]; conclusion of Example 9): superior

Which state in water ([5]; concentration 19 mM) does the source give for RSPYANS [P1-AI, RSPYANS] here?
Its state in water is “clear solution”.

B1: FITC-CM7-1 (FITC-DQIIANN) (peptide)
peptide: {FITC}-DQIIANN
notes: tested as the FITC-labelled form; Molecular weight 1289.36
For B1, which Kd [7] is on record?
Its Kd is 1270 nM.

What about the EC50 [8] of the same molecule?
Its EC50 is 9500 nM.

For {FITC}-AQIIANN (Alanine variant of CM7-1 at position 1) [FITC-CM7-1.1 (FITC-AQIIANN)], which EC50 [8] is on record?
Its EC50 is 2070 nM.

For {FITC}-DAIIANN (Alanine variant of CM7-1 at position 2) [FITC-CM7-1.2 (FITC-DAIIANN)], which EC50 [8] is on record?
Its EC50 is 1880 nM.

Which EC50 [8] does the source give for {FITC}-DQAIANN (Alanine variant of CM7-1 at position 3) [FITC-CM7-1.3 (FITC-DQAIANN)] here?
Its EC50 is 45.6 nM.

With {FITC}-DQIAANN (Alanine variant of CM7-1 at position 4) [FITC-CM7-1.4 (FITC-DQIAANN)] as the molecule, how does the EC50 [8] read?
The EC50 was 5370 nM.

Which EC50 [8] does the source give for {FITC}-DQIIAAN (Alanine variant of CM7-1 at position 6) [FITC-CM7-1.5 (FITC-DQIIAAN)] here?
Its EC50 is 15200 nM.

With {FITC}-DQIIANA (Alanine variant of CM7-1 at position 7) [FITC-CM7-1.6 (FITC-DQIIANA)] as the molecule, how does the EC50 [8] read?
The EC50 was 5050 nM.

B2: FITC-P1-AI (FITC-RSPYANS) (peptide)
peptide: {FITC-Acp}-RSPYANS
modifications: reading uncertain
notes: Synthetic 7-mer made by solid-phase synthesis; Molecular weight 1296.36
What does the source list for B2?
Kd [7]: 41.1 nM; fold increase of affinity against CM7-1 [7]: 30.9 fold

Does {FITC}-ASPYANS (Alanine variant of P1-AI at position 1) [FITC-P1-AI-1 (FITC-ASPYANS)] bind [9]?
Result: binds

Does {FITC}-RAPYANS (Alanine variant of P1-AI at position 2) [FITC-P1-AI-2 (FITC-RAPYANS)] bind [9]?
Result: binds

Does {FITC}-RSAYANS (Alanine variant of P1-AI at position 3) [FITC-P1-AI-3 (FITC-RSAYANS)] bind [9]?
Result: binds

Does {FITC}-RSPAANS (Alanine variant of P1-AI at position 4) [FITC-P1-AI-4 (FITC-RSPAANS)] bind [9]?
Result: binds

B3: FITC-P1-AI-6 (FITC-RSPYAAS) (peptide)
peptide: {FITC}-RSPYAAS
notes: Alanine variant of P1-AI at position 6; also called P1-Al-6
Does B3 bind [9]?
Result: binds
